For test [1], the target named is human TNFR1, soluble recombinant protein (human) (UniProt P19438). Kind of test: phage ELISA on 1 nM TNFR1 coat, anti-M13-HRP; phage after 100 ug/ml trypsin 1 h RT; phage input 2.26E+10. Background: In an ELISA, binding on a coated surface is turned into a signal by an enzyme label.
Test [2] concerns the target T1, TNFR1-FC fusion (human, UniProt P19438 30-211, limits assumed).
T1 construct: not shown: Fc part, not described further
T1 sequence (looked up): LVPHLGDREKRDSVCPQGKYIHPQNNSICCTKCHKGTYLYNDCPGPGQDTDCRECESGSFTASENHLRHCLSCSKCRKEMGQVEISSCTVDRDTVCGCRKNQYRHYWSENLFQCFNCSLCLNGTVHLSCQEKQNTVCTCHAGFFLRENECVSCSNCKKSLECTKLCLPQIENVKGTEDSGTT
In words: RBA assay (column 'Activity (nM)'); taken to be of the Fc fusion; competition with TNF-alpha.

Test [3] concerns the target T1, TNFR1-FC fusion. In words: TNFR-1 receptor binding assay: inhibition of TNF-alpha binding to TNFR1; after 14 days at 50 °C, concentration assumed from 1 mg/ml.
For test [4], the target named is T1, TNFR1-FC fusion. In words: TNFR-1 receptor binding assay: inhibition of TNF-alpha binding to TNFR1; after 7 days at 50 °C, concentration assumed from 1 mg/ml.
For test [5], the target named is T1, TNFR1-FC fusion. Kind of test: TNFR-1 receptor binding assay: inhibition of TNF-alpha binding to TNFR1; unstressed sample (T0).
Another test has as its target T2, recombinant human VEGF (human, UniProt P15692-4 27-191, biotinylated where used on streptavidin or neutravidin surfaces).
T2 construct: also called hVEGF; VEGFA
In words: RBA assay (column 'Activity (nM)'); taken to be of the Fc fusion; competitor VEGFR2-Fc.

T2 sequence (P15692 other isoform, or with tags, fused parts or gaps limits assumed): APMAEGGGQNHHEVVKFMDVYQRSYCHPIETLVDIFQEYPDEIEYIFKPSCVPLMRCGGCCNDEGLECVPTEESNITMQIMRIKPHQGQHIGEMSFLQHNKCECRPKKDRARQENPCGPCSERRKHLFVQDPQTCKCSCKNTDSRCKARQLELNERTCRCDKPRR

On to DOM1h-131, for which, in test [1], the phage ELISA signal is 0.337.

B1: DMS1544 (DOM1h-131-206 Fc fusion) (Fc fusion)
chain: EVQLLESGGGLVQPGGSLRLSCAASGFTFAHETMVWVRQAPGKGLEWVSHIPPDGQDPFYADSVKGRFTISRDNSKNTLYLQMNSLRAEDTAVYHCALLPKRGPWFDYWGQGTLVTVSS
notes: dAb fused to human IgG1 Fc; dimeric Fc fusion format; not shown: short linker and human IgG1 Fc
One may read the EC50 as the concentration that produces a half-maximal response. As for B1, a half-maximal response with TNFR1-FC fusion [2] (EC50) required 0.047 nM.

B2: DOM1h-131-206 (other)
VH: EVQLLESGGGLVQPGGSLRLSCAASGFTFAHETMVWVRQAPGKGLEWVSHIPPDGQDPFYADSVKGRFTISRDNSKNTLYLQMNSLRAEDTAVYHCALLPKRGPWFDYWGQGTLVTVSS
notes: also called GSK1995057A
For B2, the “IC50 (read off the curve)” value in the test with TNFR1-FC fusion [3] and with TNFR1-FC fusion [4] was around 0.1 nM each time.

B3: DOM1h-131-511 (other)
VH: EVQLLESGGGLVQPGGSLRLSCAASGFTFAHETMVWVRQAPGKGLEWVSHIPPVGQDPFYADSVKGRFTISRDNSKNTLYLQMNSLRAEDTAVYYCALLPKRGPWFDYWGQGTLVTVSS
notes: Anti-TNFR1 domain antibody (dAb, immunoglobulin single variable domain, VH), tested as soluble monomer; also called GSK1995056A
As to B3, in the test with TNFR1-FC fusion [5], the “IC50 (read off the curve)” value is around 0.1 nM.

B4: DMS1546 (DOM15-10 Fc fusion) (Fc fusion)
chain: DIQMTQSPSSLSASVGDRVTITCRASQWIGPELSWYQQKPGKAPKLLIYHTSILQSGVPSRFSGSGSGTDFTLTISSLQPEDFATYYCQQYMFQPRTFGQGTKVEIRR
notes: VK dAb fused to human IgG1 Fc; dimeric Fc fusion format; not shown: short linker and human IgG1 Fc
With B4, in the test with recombinant human VEGF, the EC50 was determined as 0.913 nM.
